The text below walks through data of article PMC10132761.

The target in the test is peptide encoding HTP-3 closure motif #4 (C. elegans). Kind of test: fluorescence polarisation; 50 nM N-terminal FITC-Ahx peptide plus indicated amounts of HIM-3 (WT or R93Y); 20 mM Tris pH 7.5, 300 mM NaCl, 10% glycerol, 1 mM DTT, 0.1% NP-40; 60 minutes at room temperature; triplicate; single-site binding model. On the technique in general: Polarisation of emitted light reports the rotation of a fluorescent probe.

B1: HIM-3 (wildtype, residues 2-291) (natural protein)
chain: ATKEQIVEHRESEIPIASQWKATFPVDLEIEKNSEMFALRYIKCASAFILDRRGILDEKCFKTRTIDKLLVTAFQSSVPAAKRVSSTFDGLRDAIQQGYLREFAIVFYKKPNEEDINEVFAFRFAYGDEGEIFVSLNNGIDTNESSQELLQAKFVDTDNTKQMFASTIKKLHRCIKKMEPLPQGSDASFRVSYTEKAPKDYTPEGYLLSPMFYTLNQDIRKASIGIVCGGHHKIQMLAASQYLKQDFDLDKTTTLNPNMSIMANQSKRKGRISRDSPYGLSQGITKKNKD
For the molecule B1, the dissociation constant (Kd) came out at 220 nM.

B2: HIM-3^R93Y (residues 2-291) (natural protein)
chain: ATKEQIVEHRESEIPIASQWKATFPVDLEIEKNSEMFALRYIKCASAFILDRRGILDEKCFKTRTIDKLLVTAFQSSVPAAKRVSSTFDGLYDAIQQGYLREFAIVFYKKPNEEDINEVFAFRFAYGDEGEIFVSLNNGIDTNESSQELLQAKFVDTDNTKQMFASTIKKLHRCIKKMEPLPQGSDASFRVSYTEKAPKDYTPEGYLLSPMFYTLNQDIRKASIGIVCGGHHKIQMLAASQYLKQDFDLDKTTTLNPNMSIMANQSKRKGRISRDSPYGLSQGITKKNKD
Regarding B2, the Kd was determined as 690 nM.

For orientation: Kd means a measure of binding affinity in units of concentration.
